The target of the test is mouse TNFR1 on L929 cells (mouse) (UniProt P25118). The test can be described thus: cell-based or functional assay.
mouse TNFR1 on L929 cells (mouse), sequence (P25118 30-454): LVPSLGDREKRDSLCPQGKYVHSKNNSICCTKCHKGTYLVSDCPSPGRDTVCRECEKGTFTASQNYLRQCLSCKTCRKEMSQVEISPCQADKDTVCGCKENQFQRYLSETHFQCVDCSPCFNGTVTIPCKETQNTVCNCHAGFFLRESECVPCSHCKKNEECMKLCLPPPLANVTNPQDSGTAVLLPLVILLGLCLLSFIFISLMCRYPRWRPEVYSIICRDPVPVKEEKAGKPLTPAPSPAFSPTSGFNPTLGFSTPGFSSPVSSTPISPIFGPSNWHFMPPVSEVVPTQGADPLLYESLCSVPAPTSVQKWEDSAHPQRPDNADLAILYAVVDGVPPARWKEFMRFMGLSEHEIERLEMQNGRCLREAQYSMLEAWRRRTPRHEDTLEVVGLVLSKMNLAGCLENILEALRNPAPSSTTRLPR

Regarding “anti-TNFR1 antibody AF-425-PB (R&D Systems)”, the ND50 of induced cytotoxicity, modified L929 assay without TNF-α was determined as 100 pM.

In the case of “anti-TNFR1 antibody MAB430 (R&D Systems)”, the ND50 of cell killing, modified L929 assay without TNF-α amounted to 10 nM.

The values are drawn from US20080008713A1.
